The values below come from patent US20200239570A1 (CRESCENDO BIOLOGICS, published 2020).

The target of assay [1] is T1, recombinant human PD-1 Fc chimera (human, UniProt Q15116 25-167).
T1 construct: Bought (R&D 1086-PD); Labelled with europium cryptate in the PD-L2 HTRF assay; also called human PD-1 (R&D Systems cat no. 1086-PD); human PD-1-huFc; not shown: human Fc of the bought chimera
In words: HTRF inhibition assay: biotinylated PD-L2-Fc binding to Europium cryptate labelled human PD-1-Fc; the target of the control antibody is not given.

The target of assay [2] is T1, recombinant human PD-1 Fc chimera. In words: HTRF inhibition assay: strep tagged human PD-L1 binding to recombinant human PD-1 (PD-L1 by legend paragraph 65; the sheet's title reads PD1:PDL2); the target of the control antibody is not given. For orientation: In TR-FRET formats the signal depends on donor and acceptor labels being close together.
For assay [3], the target named is human PD-1 expressed on cells (CHO human PD-1 cells) (human) (UniProt Q15116).
The target is the same in assay [4]. This is another data set of the same source.
Assay [5] concerns the target T1, recombinant human PD-1 Fc chimera. In words: HTRF inhibition assay: strep tagged human PD-L1 binding to recombinant human PD-1 (PD-L1 by legend paragraph 65; the sheet's title reads PD1:PDL2). The method, then: All samples and reagents were prepared in HTRF assay buffer containing PBS, 0.1% (w/v) BSA and 0.4M Potassium Fluoride. […] Total binding controls containing periplasmic extract sample buffer and non-specific binding controls containing excess untagged competitor were set up on each plate for data normalisation. Time-resolved fluorescent emission at 620 nm and 665 nm was measured following excitation at 337 nm on the BMG PHERAstar plate reader. Data was expressed as a % of the total binding control (% control) after subtraction of the background signal determined from the non-specific binding control wells.

Assay [6] has the same target. In words: HTRF binding assay, His-tagged VH on 2 nM recombinant PD-1. As to the method:
(§1) Purified VH were tested for their ability to bind to human PD-1 (R&D Systems cat no. 1086-PD), cynomolgus PD-1 (Acro Biosystems cat no. PD1-C5254) and mouse PD1 (R&D Systems cat no. 1021-PD) in an HTRF Binding assay format. All reagents and serially diluted VH were prepared in assay buffer containing PBS, 0.1% BSA and 0.4M Potassium Fluoride. Samples or assay buffer (non-specific binding) were incubated with 2 nM human/cynomolgus or mouse PD-1, 1 nM Anti human-Fc Cryptate PAb (Cisbio cat. no. 61HFCKLB) and 30 nM anti His-D2 (CisBio cat no 61HISDLA) in black 384-shallow well assay plates for a minimum of 3 hours at room temperature. Time-resolved fluorescent emission at 620 nm and 665 nm was measured following excitation at 337 nm on the BMG PHERAstar plate reader. The HTRF ratio were calculated ((665 nm emission/620 nm emission)*10000) and the data corrected for (non-specific binding) to give the specific binding signal.

For assay [7], the target named is T2, cynomolgus PD-1 (Acro Biosystems cat no. PD1-C5254) (cynomolgus, UniProt B0LAJ3 25-170).
T2 construct: bought recombinant protein; also called cyno PD-1; cynomolgus PD-1 recombinant protein; not shown: Human Fc tag of the vendor's construct, and any linker to it; The Fc is implied by detection with anti human-Fc cryptate
The assay is described as above. The method, then:
as §1

The target of assay [8] is T3, human PD-1 expressed on cells (CHO human PD-1 cells) (human, UniProt Q15116 21-288).
T3 construct: CHO cells in the FMAT assays; Jurkat reporter cells in the reporter assay; primary CD4+ T cells in the mixed lymphocyte reaction; also called CHO TREX human PD1 cell line; CHO PD-1
Put plainly: FMAT binding assay on CHO human PD-1 cells, detection by anti-His. The source says:
Plates were read in the FL2 (502 nm-537 nm) and FL5 (677-800 nm) channels on the TTP Mirrorball plate reader following excitation at 488 nm and 640 nm. Data was gated on FL5 perimeter and peak intensity and the FL2 median mean fluorescence intensity of the gated data used for determination of VH binding.

Assay [9] addresses T3, human PD-1 expressed on cells (CHO …). In words: FMAT epitope competition on CHO human PD-1 cells; competitor 2 nM 2.1-Strep tagged protein. As to the method:
(§2) For the epitope competition assay reagents were prepared in FMAT assay buffer. […] Plates were incubated for a minimum of 1.5 hours at room temperature then fluorescence measured in the FL2 (502 nm-537 nm) and FL5 (677-800 nm) channels on the Mirrorball plate reader (TTP) following excitation at 488 nm and 640 nm. Data was expressed as a % of the total binding control (i.e. % control) after subtraction of the background signal determined from the non-specific binding control wells.

For assay [10], the target named is T4, mouse PD1 (R&D Systems cat no. 1021-PD) (mouse, UniProt Q02242 25-167).
T4 construct: bought recombinant protein; also called mouse PD-1 protein
T4 sequence (looked up): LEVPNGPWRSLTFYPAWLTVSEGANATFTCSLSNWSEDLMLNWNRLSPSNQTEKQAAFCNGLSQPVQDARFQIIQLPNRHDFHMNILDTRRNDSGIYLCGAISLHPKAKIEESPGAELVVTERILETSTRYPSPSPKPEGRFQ
Put plainly: HTRF binding assay on mouse PD-1. The method, then:
as §1

Assay [11] has as its target T3, human PD-1 expressed on cells (CHO …). Put plainly: FMAT epitope competition on CHO human PD-1 cells; competitor 2 nM 1.1-Strep tagged protein. As to the method:
as §2

Assay [12] deals with T1, recombinant human PD-1 Fc chimera. Put plainly: BLI (Octet), PD-1-huFc on biosensor, 1:1 fit. As to the method: Binding kinetics of clones to human PD-1-huFc were measured in real-time bio-layer interferometer based biosensor Octet (ForteBio). Recombinant human PD-1-huFc was either immobilized by standard amine coupling to amine reactive biosensors in 10 mM sodium acetate at pH 5.0 or capture by protein G biosensors (ForteBio). All the binding studies were performed in HBS-ET Octet kinetics buffer. Biosensors were always washed in Octet kinetics buffer in between different steps. A seven point, two-fold dilution series of each Humabody® VH was made with a top concentration in range 100-30 nM. The contact time for each of the association steps was varied between 180-300 seconds and the dissociation step was varied between 400-600 seconds. Kinetic association (kₐ) and dissociation (kd) rate constants were determined by processing and fitting the data to a 1:1 binding model using ForteBio Analysis software.
(BLI is a label-free optical method that tracks binding on a fibre tip over time.)

The target in assay [13] is human PD-1 expressed on cells (CHO human PD-1 cells) (human) (UniProt Q15116). This is another data set of the same source.
Assay [14] concerns the target T3, human PD-1 expressed on cells (CHO …). In words: cell-based or functional assay.
The target is the same in assay [15]. In words: FMAT, His-tagged VH on CHO human PD-1 cells.
Assay [16] addresses T4, mouse PD1 (R&D Systems cat no. 1021-PD). In words: HTRF binding assay, 2 nM mouse PD-1.
Assay [17] has as its target T1, recombinant human PD-1 Fc chimera. Put plainly: SPR (Biacore T200), PD-1-huFc amine-coupled to CM5, single cycle kinetics, 1:1 fit. As to the method: Binding kinetics of certain VH single domain antibodies binding to human PD-1-huFc were measured by surface plasmon resonance (SPR) technology using Biacore T200 instrument (GE Healthcare). Recombinant human PD-1-huFc was immobilized by standard amine coupling to CM5 sensorschip (GE Healthcare) using 0.01 mg/ml solution of antigen in 10 mM sodium acetate at pH 5.5. For the reference flow cell, a blank immobilisation was carried out. Single cycle kinetics assays were used to study the interaction, a five point, three-fold dilution series of each Humabody® was made with a top concentration of 30 nM. The binding kinetics were followed by flowing the Humabody® over the chip surface in HBS EP+ buffer at a flow rate of 30 μl/min. The contact time for each of the association steps was 180 seconds and the dissociation step was varied between 1200-3600 seconds. The data was fitted to a 1:1 binding model after double reference subtraction using the Biacore T200 Evaluation software.
For orientation: In SPR one partner is held on a chip, and binding of the other changes the refractive index at the surface.

Like-named read-outs stand apart in the source and are kept apart here.

T2 sequence (B0LAJ3 entry or part of it limits assumed): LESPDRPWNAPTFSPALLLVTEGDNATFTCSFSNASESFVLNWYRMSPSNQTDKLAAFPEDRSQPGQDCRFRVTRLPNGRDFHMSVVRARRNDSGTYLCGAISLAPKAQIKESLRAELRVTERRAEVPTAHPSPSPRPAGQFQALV
T3 sequence (Q15116 21-288): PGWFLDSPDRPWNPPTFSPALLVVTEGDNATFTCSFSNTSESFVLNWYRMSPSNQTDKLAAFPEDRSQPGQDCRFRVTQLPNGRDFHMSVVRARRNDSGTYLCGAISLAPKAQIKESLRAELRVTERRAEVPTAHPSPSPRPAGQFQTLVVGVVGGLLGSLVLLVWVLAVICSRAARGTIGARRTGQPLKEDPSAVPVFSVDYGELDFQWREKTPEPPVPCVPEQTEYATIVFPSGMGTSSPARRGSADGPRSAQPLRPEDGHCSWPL
human PD-1 expressed on cells (CHO human PD-1 cells) (human), sequence (Q15116 21-288): as above
T1 sequence (Q15116 25-167, change not shown): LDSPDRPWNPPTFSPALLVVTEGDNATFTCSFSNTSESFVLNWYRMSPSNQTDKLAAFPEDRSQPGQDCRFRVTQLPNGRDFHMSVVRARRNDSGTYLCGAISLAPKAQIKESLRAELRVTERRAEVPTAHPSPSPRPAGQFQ

Take Control anitbody (antibody): the IC50 (read off the curve) in [1] and in assay [2] was 0.3 nM in each case.

As for Control, the EC50 (read off the curve), NFAT-luciferase reporter was determined as 20 nM in [3] and 5 nM in assay [4].

B1: VH single domain antibody 1.1 (VHH)
VHH: EVQLLESGGGSVQPGRSLRLSCAASGFTFDDHAMHWVRQAPGKGLEWVSGISWNSGSMGYADSVKDRFTISRDNAKSSLYLQMNSLRAEDTALYYCVREKGPGLTGSTADYYGLDVWGQGTMVTVSS
notes: human VH single domain antibody (Humabody), purified through its C-terminal His tag; also called Humabody 1.1; clone 1.1
In the case of B1, the “IC50 (read off the curve)” value in assay [5] was roughly 2 nM. Further, the EC50 stood at 0.5 nM in assay [6] and 0.6 nM in assay [7]. Besides, the “EC50 (read off the curve)” value in assay [8] was roughly 0.5 nM. Further, the IC50 is 3.6 nM in assay [9] and 3.5 nM in assay [11]. Moreover, the binding result in assay [10] was “no binding”. In addition, in assay [12], the Kd amounted to 1.9 nM. Moreover, the kon in assay [12] was 450000 M⁻¹ s⁻¹.

B2: 1.21 (VHH)
VHH: EVQLVESGGGLVQPGRSLRLSCAASGFTFDDYAMHWVRQAPGKDLEWVSGISWNGGSMGYAASVKGRFTISRDNAKNSLYLQMNSLRAEDTALYYCVREKGPGLTGSTADYYGLDVWGQGTMVTVSS
notes: also called VH single domain antibody 1.21; Humabody VH 1.21
With B2, in [8], the “EC50 (read off the curve)” value was roughly 0.7 nM.

B3: VH single domain antibody 1.2 (VHH)
VHH: EVQLVESGGGLVQPGRSLRLSCAASGFTFDDYAMHWVRQAPGKDLEWVSGISWNGGSMGYAASVKGRFTISRDNAKNSLYLQMNSLRAEDTALYYCVKDKGPGLIGSTADYYGLDVWGQGTTVTVSS
notes: human VH single domain antibody
Take B3: in assay [5], the “IC50 (read off the curve)” value is roughly 5 nM. Besides, the EC50 stood at 0.9 nM in assay [6] and 1.1 nM in [7]. In assay [10], the binding result is given as “no binding”.

B4: Blocking VH-4GS-1.39 (protein, part only; not given: 4GS linker, part only)
VH(A)-linker-VH, part: EVQLVESGGGLVKPGGSLRLSCAASGFTFSDESMTWMRQAPGKGLEWVSYISSGGGVKFYADSVKGRFTISRDNAKNSLYLQMNSLRAEDTAVYYCAREAPLRLGESPHDAFDISGQGTMVTVSSEVQLVESGGGLVQPGRSLRLSCAASGFTFDDYALHWVRQAPGKDLEWVSGISWNGGSYGYADSVKGRFTISRDNAKNSLYLQMNSLRAEDTALYYCVREKGPGLTGSTADYYGLDAWGQGTMVTVSS
With B4, in assay [13], the EC50 (read off the curve), NFAT-luciferase reporter was determined as 2 nM.

B5: Blocking VH (VHH)
VHH: EVQLVESGGGLVKPGGSLRLSCAASGFTFSDESMTWMRQAPGKGLEWVSYISSGGGVKFYADSVKGRFTISRDNAKNSLYLQMNSLRAEDTAVYYCAREAPLRLGESPHDAFDISGQGTMVTVSS
For B5, the “EC50 (read off the curve), NFAT-luciferase reporter” value in assay [14] was roughly 20 nM.

B6: Blocking VH-4GS-2.12 (protein, part only; not given: 4GS linker, part only)
VH(A)-linker-VH, part: EVQLVESGGGLVKPGGSLRLSCAASGFTFSDESMTWMRQAPGKGLEWVSYISSGGGVKFYADSVKGRFTISRDNAKNSLYLQMNSLRAEDTAVYYCAREAPLRLGESPHDAFDISGQGTMVTVSSEVQLVESGGGVVRPGGSLRLSCAASGFTFDDYAMSWVRQAPGKGLEWVSGITWNAGSTGYADSVKGRFTISRDNAKNSLYLQMNSLRAEDTALYYCVRDKYSYAWSYDDFDIWGQGTMVTVSS
B6: in assay [13], the EC50 (read off the curve), NFAT-luciferase reporter is 1 nM.

B7: VH single domain antibody 2.1 (VHH)
VHH: EVQLVESGGGVVRPGGSLRLSCAASGFTFDDYAMSWVRQAPGKGLEWVSGITWNGGSTGYADSVKDRFTISRDNAKNSLYLQMNSLRAEDTALYYCVRDKYSYAWSYDGFDIWGQGTMVTVSS
notes: human VH single domain antibody; also called Humabody VH 2.1; clone 2.1
As to B7, the EC50 in assay [6] was 3.3 nM; in assay [7], 6.3 nM; in assay [15], 0.7 nM. The figures for the IC50 in assay [9] and in [11] were 9.4 nM and 9.2 nM, respectively. The Kd in assay [12] came out at 2.6 nM. The koff in assay [12] was found to be 0.0015 s⁻¹. Moreover, in [12], the kon is 590000 M⁻¹ s⁻¹. In addition, the binding result in [16] was “no binding”.

B8: Humabody VH 2.12 (VHH)
VHH: EVQLVESGGGVVRPGGSLRLSCAASGFTFDDYAMSWVRQAPGKGLEWVSGITWNAGSTGYADSVKGRFTISRDNAKNSLYLQMNSLRAEDTALYYCVRDKYSYAWSYDDFDIWGQGTMVTVSS
notes: as for B3
For the molecule B8, the EC50 in assay [6] stood at 13 nM. In addition, the EC50 in assay [7] came to 18 nM. This molecule also yielded an EC50 in assay [15] of 1.3 nM. For the same molecule, the binding result in [16] was “no binding”. Further, in assay [17], the Kd worked out at 6.89 nM, the off-rate constant (koff) amounted to 0.0385 s⁻¹ and the kon was 5.5e+06 M⁻¹ s⁻¹.

What is called EC50 is the midpoint of the concentration-response curve. What is called EC50 (read off the curve) is the concentration giving half of the maximal effect. A lower EC50 (read off the curve) goes with an effect from little substance. What is called IC50 is the concentration that inhibits the measured activity by half. A higher IC50 goes with a need for much substance. One may read the Kd as the concentration at which binding is half-saturated. As a reminder, the kon is a measure of how fast the partners come together. As usually defined, the koff is the first-order rate constant of dissociation.
